# Laboratory results reported in patent publication US8586538B2, “Method of treating a patient suffering from a bleeding disorder comprising administering an antibody against the A3-C1 of FVIII” (Stichting Sanquin Bloedvoorziening, priority 2002, dated 2013).
# T1: interaction between FVIII light chain and LRP (Homo sapiens, UniProt P00451)
# T1 construct: from tissue; host or cells: FVIII light chain from plasma; LRP from placenta
# T1 sequence (P00451 1668-2351 limits assumed): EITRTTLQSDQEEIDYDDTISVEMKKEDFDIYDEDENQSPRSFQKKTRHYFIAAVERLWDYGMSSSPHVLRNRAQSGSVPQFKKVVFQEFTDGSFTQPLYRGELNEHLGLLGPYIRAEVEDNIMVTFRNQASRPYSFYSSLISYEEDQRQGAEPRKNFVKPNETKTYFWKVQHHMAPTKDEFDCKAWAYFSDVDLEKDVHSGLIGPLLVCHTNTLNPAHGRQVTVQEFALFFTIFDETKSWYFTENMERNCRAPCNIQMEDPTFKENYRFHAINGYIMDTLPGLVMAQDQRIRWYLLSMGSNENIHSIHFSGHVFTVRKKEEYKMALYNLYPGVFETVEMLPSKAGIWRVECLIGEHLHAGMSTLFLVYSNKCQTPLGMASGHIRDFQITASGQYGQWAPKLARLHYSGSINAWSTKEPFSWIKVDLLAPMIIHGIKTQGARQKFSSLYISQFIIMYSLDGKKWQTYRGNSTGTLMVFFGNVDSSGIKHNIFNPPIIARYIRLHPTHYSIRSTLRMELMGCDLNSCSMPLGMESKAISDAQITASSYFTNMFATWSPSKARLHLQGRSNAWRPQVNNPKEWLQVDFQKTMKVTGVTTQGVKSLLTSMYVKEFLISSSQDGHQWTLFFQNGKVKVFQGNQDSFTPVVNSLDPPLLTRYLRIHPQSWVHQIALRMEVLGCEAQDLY
# B1: scFv KM41: scFv antibody fragment directed against FVIII region Arg^1803-Lys^1818 (protein)
# scFv: QVQLLQSAADVKKPGASVKVSCTASGYIFTSYDIDWVRQATGQGLEWMGWMNPNSGNAGFAQKFKGRLTLTRDTSTSTAYMELRRLESEDTAVYYCARSTPHSYSGSGLPPTSDSWGQGTLVTVSSGGGGSGGGGSGGGGSEIVLTQSPGTLSLSPGERATLSCRASQSVSSSFLGWYQQKPGQAPRLLIYGASSRATGIPDRFSGSGSGTDFTLTISRLEPEDFAVYYCQQYGISPLTFGGGTKLEIKRAAAEQKLISEEDLNGAAHHHHHH
# Biological target: T1, interaction between FVIII light chain and LRP
# Assay: SPR competition: FVIII light chain binding to immobilized LRP
# Details: FVIII light chain 50 nM; scFv 20-500 nM
# Procedure: FIG. 4. Effect of scFv antibody fragments on the interaction between FVIII light chain and LRP. A, FVIII light chain (LCh) (25 nM) was incubated with immobilized LRP cluster II (1 pmol/well) in a volume of 50 μl in 150 mM NaCl, 5 mM CaCl2, 1% (w/v) HSA, 0.1% Tween® 20, and 50 mM Tris (pH 7.4) in the presence of various concentrations (0-100 nM) of scFv KM41 (closed circles) or scFv KM36 (open circles) for 2 h at 37° C. After washing with the same buffer, bound FVIII light chain was quantified by incubation with peroxidase-conjugated anti-FVIII antibody CLB-CAg 12 for 15 min at 37° C. Residual binding is expressed as the percentage of binding in the absence of competitor and is corrected for nonspecific binding (less than 5% relative to binding to LRP cluster II-immobilized wells). […] Binding was assessed in the absence (curve 1) or in the presence of increasing concentrations of scFv KM41 (20, 60, 300, 500 nM, curves 2-5, respectively). […]
# The kinetics of protein interactions was determined by surface plasmon resonance (SPR) analysis, employing a BIAcore™2000 biosensor system (Biacore AS, Uppsala, Sweden). […] Association of analyte was assessed in 150 mM NaCl, 2 mM CaCl2, 0.005% (v/v) Tween® 20, and 20 mM Hepes (pH 7.4) for 2 min, at a flow rate of 20 μl/min at 25° C. […] Equilibrium dissociation constants (kd) were calculated from the ratio koff/kon. […]
molecule,measurement,value
B1,Effect on association of FVIII light chain with immobilized LRP,only partially inhibits
